Assay [1] addresses T1, alpha-synuclein peptide 1-61 (human).
T1 construct: synthetic peptide coated on plate
Description: peptide ELISA.
Description: (§1) 96-well Nunc plates were coated with 1 pg/mL of the indicated synthetic peptide in PBS 50 μL/well overnight. The plates were washed three times with PBST, then blocked with 150 μL of 3% BSA in PBS for 1 hour. Purified antibody was diluted by serial dilution methods, from 10 pg/mL to 0.6 ng/ml, and 50 μL of the antibody solution was added to the peptide-coated wells. The plates were incubated for 1 hour at room temperature, then washed three times with PBST. Secondary detection antibody, goat anti-rat HRP (obtained from Southern Biotech) 1:5,000 diluted in BSA-PBS, was added to a concentration of 50 μL/well. Plates were incubated for one hour and washed three times with PBST. Plates were then developed with 50 μL/well of TMB substrate (obtained from Thermo Fisher) and quenched with 50 μL/well of 1 N sulfuric acid. The signal was quantified on a BioTek® plate reader at A450.

Assay [2] has as its target T2, alpha-synuclein peptide 1-95 (human).
T2 construct: synthetic peptide coated on plate
Description: peptide ELISA. (In general: ELISA stands for enzyme-linked immunosorbent assay.)
Description: as §1

Assay [3] has as its target alpha-synuclein peptide 1-112 (human). Description: peptide ELISA.
Description: as §1
Assay [4] concerns the target T3, alpha-synuclein peptide 95-140 (human).
T3 construct: synthetic peptide coated on plate
Description: peptide ELISA, coated fragment.
Description: as §1

For assay [5], the target named is T4, alpha-synuclein peptide 61-140 (human).
T4 construct: synthetic peptide coated on plate
Description: peptide ELISA, coated fragment.
Description: as §1

The target in assay [6] is T5, human alpha-synuclein monomer (human, UniProt P37840 1-140). Nature of the assay: direct ELISA on coated antigen.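 Note: plates coated with recombinant human, mouse or rat alpha-synuclein, purified antibody titrated 10 µg/mL down to 0.6 ng/mL for 1 h, bound antibody detected by anti-rat HRP with TMB.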
Description: (§2) 96-well Nunc plates were coated with 50 μL of recombinant human, mouse, or rat alpha-synuclein at a concentration of 1 μg/mL in PBS at 4° C. overnight. The plates were then washed three times with PBST and blocked with PBS containing 3% BSA at room temperature for 1 hour. Purified antibody was diluted by serial dilution methods, from 10 μg/mL to 0.6 ng/mL, and 50 μL of the antibody solution was added to the alpha-synuclein-coated wells. The plates were incubated for 1 hour at room temperature, then washed three times with PBST. Secondary detection antibody (goat anti-rat HRP (obtained from Southern Biotech)) was added 50 μL/well, 1:5,000 diluted in BSA-PBS solution. Plates were incubated for 1 hour at room temperature, then washed three times with PBST. Plates were subsequently developed with 50 μL/well of TMB substrate (Thermo Fisher) and quenched with 50 μL/well of 1 N sulfuric acid. The signal was quantified on a BioTek® plate reader at A450.
Assay [7] concerns the target T6, rat alpha-synuclein (rat, UniProt P37377 1-140). Description: direct ELISA on coated antigen.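 Note: plates coated with recombinant human, mouse or rat alpha-synuclein, purified antibody titrated 10 µg/mL down to 0.6 ng/mL for 1 h, bound antibody detected by anti-rat HRP with TMB.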
Description: as §2
The target of a further assay is T7, beta-synuclein protein (human, UniProt Q16143 1-134).
T7 construct: species read from 'recombinant human alpha-synuclein protein, beta-synuclein protein, and gamma-synuclein protein'
Description: ELISA on coated synuclein, 1 ug/mL.

Another assay deals with T8, gamma-synuclein protein (human, UniProt O76070 1-127).
T8 construct: species read from 'recombinant human alpha-synuclein protein, beta-synuclein protein, and gamma-synuclein protein'
Description: ELISA on coated synuclein, 1 ug/mL.

Assay [8] deals with T5, human alpha-synuclein monomer. Description: ELISA, coated human alpha-synuclein.
Assay [9] deals with alpha-synuclein phosphorylated at serine 129 (human, UniProt P37840 1-140). Nature of the assay: SPR (Biacore), antibody captured, p129-Syn injected.
Description: (§3) Anti-mouse Fc antibody (obtained from GE Healthcare) was immobilized on the surface of a CM5 chip (obtained from GE Healthcare) through amine-coupling to reach about 6,000 to 8,000 response units (RU). The surface was activated by injection of a mixture of 1-ethyl-3-(3-dimethylaminopropyl)-carbodiimide (EDC) and N-hydroxysuccinimide (NETS), both obtained from GE Healthcare, for 7 minutes at room temperature. […] Both injections were done at room temperature.
(§4) Purified rat anti alpha-synuclein antibody (10 μg/mL) was injected at room temperature and captured to reach 1,000 to 2,000 RU. […] Sensorgrams were fitted using a 1:1 Langmuir model to estimate kₒₙ and koff.
Assay [10] deals with T5, human alpha-synuclein monomer. Nature of the assay: SPR (Biacore), antibody captured, monomer injected, 1:1 fit.
Description: as §3, §4
Assay [11] has as its target T6, rat alpha-synuclein. Description: direct ELISA; member tied to this end by the EC50 values of Table 6 (2.0/0.03).
Description: as §2
Assay [12] addresses T6, rat alpha-synuclein. Nature of the assay: direct ELISA on coated antigen; upper end tied to 22D11 by Table 6 (2.0 nM rat / 0.03 nM human).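 Note: plates coated with recombinant human, mouse or rat alpha-synuclein, purified antibody titrated 10 µg/mL down to 0.6 ng/mL for 1 h, bound antibody detected by anti-rat HRP with TMB.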
Description: as §2
Assay [13] concerns the target T5, human alpha-synuclein monomer. Nature of the assay: ELISA, plate coated with the peptide or protein, antibody titrated, anti-rat HRP, A450.
Description: as §1
Assay [14] has as its target T3, alpha-synuclein peptide 95-140. Described as above.
Description: as §1
Assay [15] has as its target T4, alpha-synuclein peptide 61-140. Described as above.
Description: as §1
Assay [16] addresses T9, human alpha-synuclein pre-formed fibrils (human, UniProt P37840 1-140). Description: competition ELISA: fibrils titrated in solution against 0.6 nM antibody, free antibody read on aSyn-coated plate.
Description: Purified antibody was probed with different concentrations of alpha-synuclein fibrils in solution, and the levels of unbound antibody were measured by ELISA analysis. In this experiment, 0.6 nM (0.1 μg/mL) of purified antibody was dissolved in phosphate-buffered saline (PBS) solution. […] The mixtures were gently shaken at room temperature for 1 hour to reach equilibrium. After that, these samples were transferred to an alpha-synuclein protein-coated ELISA plate and incubated for 5 minutes. During this short incubation, antibody that was not associated to antigen in the previous solution could instead bind onto the plate, and thus be quantified using a standard ELISA technique. By this means, it was possible to determine the amount of free antibody in the initial mixture with alpha-synuclein fibrils at indicated concentrations.
Assay [17] has as its target T10, human alpha-synuclein oligomers (human, UniProt P37840 1-140). Nature of the assay: competition ELISA: oligomers titrated in solution against 0.6 nM antibody, free antibody read on aSyn-coated plate.
Description: To measure the binding affinities of select antibodies toward oligomeric alpha-synuclein protein, purified antibodies were probed with different concentrations of human alpha-synuclein oligomers in solution, and the levels of unbound antibody were measured by ELISA analysis. In this experiment, 0.6 nM (0.1 pg/mL) of purified antibody was dissolved in phosphate-buffered saline (PBS) solution. […] The mixtures were gently shaken at room temperature for 1 hour to reach equilibrium. After that, these samples were transferred to an alpha-synuclein protein-coated ELISA plate, and antibody not bound to antigen in the previous solution was detected by direct ELISA.
Assay [18] addresses T5, human alpha-synuclein monomer. Nature of the assay: direct ELISA, plate coated with 1 µg/mL recombinant human alpha-synuclein, antibody titrated, anti-rat HRP, A450.
Description: as §2
In another assay the target is mouse alpha-synuclein (mouse, UniProt O55042 1-140). Nature of the assay: direct ELISA, plate coated with 1 µg/mL recombinant mouse alpha-synuclein, antibody titrated, anti-rat HRP, A450.
Assay [19] concerns the target T9, human alpha-synuclein pre-formed fibrils. Nature of the assay: SPR; SPR; aSyn fibrils.
The target in assay [20] is T5, human alpha-synuclein monomer. Nature of the assay: SPR; SPR; aSyn monomers.
Assay [21] addresses T10, human alpha-synuclein oligomers. Description: SPR; SPR; aSyn oligomers.
Assay [22] concerns the target T5, human alpha-synuclein monomer. Description: SPR (Biacore), aSyn monomers. Background: In SPR one partner is held on a chip, and binding of the other changes the refractive index at the surface.
Description: (§5) Serial 3-fold dilutions of aSyn were injected at a flow rate of 30 μL/min. Each sample was analyzed using a 3-minute association and a 10-minute dissociation. After each injection, the chip was regenerated using 3 M MgCl₂. Binding response was corrected by subtracting the RU from a flow cell capturing an irrelevant IgG at similar density. A 1:1 Languir model of simultaneous fitting of kₒₙ and koff was used for kinetics analysis.
Assay [23] shares this target. Nature of the assay: KinExA kinetic exclusion assay.
For assay [24], the target named is T9, human alpha-synuclein pre-formed fibrils. Nature of the assay: KinExA kinetic exclusion assay. (In general: A kinetic exclusion assay measures how much of one partner remains free in solution.)
The target in assay [25] is T10, human alpha-synuclein oligomers. Description: KinExA kinetic exclusion assay.
Assay [26] concerns the target T5, human alpha-synuclein monomer. Nature of the assay: SPR (Biacore 8K), IgG captured on anti-human Fc, aSyn monomer injected.
Description: as §5

The record followed here is patent publication US20230074436A1 (DENALI THERAPEUTICS, published 2023).

Description for beta-synuclein protein: (§6) Binding to different synuclein species was tested using a method similar to the ELISA format described above. Briefly, recombinant human alpha-synuclein protein, beta-synuclein protein, and gamma-synuclein protein was coated onto 96-well Nunc plates at 1 μg/mL. The plates were washed with PBST and blocked with 150 μL of 3% BSA in PBS. The serial dilutions of purified antibodies were applied onto the plate, and the associated antibody was detected with goat anti-rat HRP secondary antibody.
Description for gamma-synuclein protein: as §6
Description for mouse alpha-synuclein: as §2

B1: 22D11 (antibody, rat IgG1, V domains shown)
VH: AVQFVESGGGLVRPKESLKISCTASGFTFTNAAIYWVRQAPGKGLECIARIRTKPNNYATYYADSVRGRFTISRDDSKPMVYLQMNELKTEDTAMYYCAADASRGDYWGQGVMVTVSS
VL: DIQMTQSPSVLSASVGDRVTFSCKASQNINKNLDWYQQKLGEVPKVLIYFTNNLQTGIPSRFSGSGSGTDYTLTISSLQPEDVATYYCYQYTSGFTFGAGTKLELK
notes: also called clone 22D11
For B1, the “antibody concentration at which ELISA is positive” value in [1] is more than 2600 ng/mL; in [2], more than 2600 ng/mL; in assay [3] it was more than 2600 ng/mL; in assay [4] it was less than 40 ng/mL; in assay [5] it was less than 40 ng/mL; in [8], less than 40 ng/mL. In addition, the results for the “Bmax (O.D. at 450 nm)” value (in assay [6]; with rat alpha-synuclein [7]) were 1.2 OD and 0.05 OD, respectively. For the same molecule, the figures for the EC50 (in assay [6]; with rat alpha-synuclein [7]) were 0.03 nM and 2 nM, respectively. The binding result with beta-synuclein protein is given as “no binding”; with gamma-synuclein protein, “no binding”; with mouse alpha-synuclein, “no binding (tested: 10 µg/ml (log 1))”. For the same molecule, the Kd (as a rule, the constant that tells how readily two partners part at equilibrium) in [9] was 42.9 nM; in assay [10], 18.1 nM. Further, the koff (in general, a measure of how fast the partners let go of each other) stood at 0.0035 s⁻¹ in assay [9] and 0.00337 s⁻¹ in assay [10]. Moreover, the kon – broadly, a measure of how fast the partners come together – in [9] turned out to be 81600 M⁻¹ s⁻¹; in assay [10] it was 186000 M⁻¹ s⁻¹. Further, in the assay with rat alpha-synuclein [11], the “fold higher EC50 for rat than for human alpha-synuclein” value was 66.7 fold. Also, the “fold higher EC50 for rat alpha-synuclein compared to human alpha-synuclein” value in the assay with rat alpha-synuclein [12] worked out at 66.7 fold. Besides, the EC50 (read off the curve) (commonly the concentration needed to bring the measured effect to its halfway point) is approximately 0.04 µg/mL in [13], approximately 0.04 µg/mL in assay [14], approximately 0.03 µg/mL in assay [15] and approximately 0.04 µg/mL in [18]. The IC50 (as a rule, the point on the concentration scale where inhibition reaches its midpoint) in [16] came out at 4.53 nM; in assay [17], 15.2 nM.

B2: 20H4_HC5_L1_1 (antibody, V domains shown)
VH: EVQLVESGGGLVQPGGSLRLSCAASGFTFSNAAMYWVRQAPGKGLELLARIRTKPNNYATYHADSVKGRFTISRDDSKNTVYLQMNSLRAEDTAVYYCTADMATGDYWGQGTLVTVSS
VL: DIQMTQSPSSLSASVGDRVTITCKASQNINNNLDWYQQKPGKAPKPLIYSTNNLKTGVPSRFSGSGSGTDFTLTISSLQPEDFATYYCYQYKSAWTFGQGTKVEIK
notes: also called 20H4_H5_L1_1; hu20H4
For the molecule B2, the Kd in assay [19] was determined as 0.27 nM; in [20] it was 0.12 nM; in assay [21], 0.19 nM; in assay [22], 0.21 nM; in [23], 0.0157 nM; in [24], 0.000638 nM. For the same molecule, the Kd in assay [25] was 0.00886 nM; in [26], 0.1 nM.
